This is an account of results in the nanobody polyreactivity screen of Harvey et al. (2022).

The data set in a line: yeast display, Sf9 membrane polyspecificity reagent, FACS + sequencing; frameworks hold sequencing errors. Put shortly:
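Galactose-induced (36–48 hours) yeast carrying a synthetic nanobody display library were exposed to 10% biotinylated, detergent-solubilized Sf9 membrane reagent at 4 °C for 1 hour. FACS followed streptavidin microbead enrichment, using low and high (top ~1%) gates for expression (anti-HA) and reagent binding (streptavidin). Colony PCR, MiSeq 2 × 250 sequencing and CDR-length filtering followed. Labels for polyreactivity reflect the gate of origin.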
Regarding “QVQLVESGGGLVQAGGSLRLSCAASGSNFRVYAMGWYRQAPGKESELVAAIDSGTSTTYADSVKGRFTISRDNAKNTVYLQMNSLKPEDTAVYYCAADGWLWSFTGDGWWFDYWGQGTQVTVSS”, the “polyreactivity (PSR sort gate)” value is reported as “low polyreactivity”. Next, “QVQLVESGGGLVQAGGSLRLSCAASGRIFVSYAMGWYRQAPGKERELVATINIGSDTYYADSVKGRFTISRDNAKNTVYLQMNSLKPEDTAVYYCAKDYYEGDSYPYPGYEYWGQGTQVTVSS”: “low polyreactivity”; “QVQLVESGGGLVQAGGSLRLSCAASGRIFYRYVMGWYRQAPGKERELVAAITSSGGSTYYADSVKGRFTISRDNAKHTVYLQMISLQPEDTAVYYCAADRYTRYRYNYWGQGTQVTVSS”: “high polyreactivity”; “QVQLVESGGGLVQAGGSLRLSCAASGSTFIPYAMGWYRQAPGKERELVAAIRGGDGSTYYADSVKGRFTISRDNAKNTVYLQMNSLKPEDTAVYYCAADTVITAYFYRFWRYNYWGQGTQVTVSS”: “low polyreactivity”.

Regarding “QVQLVESGGGLVQAGGSLRLSCAASGSIFGDNAMGWYRQAPGKERELVAAITSSGGSTYYADSVKGRFTISRDNAKNSVYLQMNSLKPEDTAVYYCNADFGYGWYLRYDYWGLGTQVTVSS”, the “polyreactivity (PSR sort gate)” value is “high polyreactivity”. Turning to “QDQLVESGGGLVQAGGSLRLSCAASGFTFRSNAMGWYRQAPGKERELVAAISRTGGSTYYADSVKGRFTISRDNAKNTVYLQMNSLKPEETAVYYCNTVYGKSHYGQAMDSWGQGTQVTVSS”, the “polyreactivity (PSR sort gate)” value is given as “high polyreactivity”. In the case of “QLQLVESGGGLVQAGGSLRLSCAASGITFGANTMGWYRQAPGTERELVAAITISGGITHYADSVKGRFTISRDNAKNTVYLQMNSLKPEDTAVYYCAAGAYWRLYPYRQRNGGRMYYWGQGTQVTVSS”, the “polyreactivity (PSR sort gate)” value is on record as “low polyreactivity”. Next, “QVQLVESGGGLVQAGGSLRLSCAASGSTFIRYAMGWYRQAPGKERELVAAISSGGGNTYYADSVKGRFTISRDNAKNTVYLQMDSLKPEDTAVYYCAARYLAYGPTGYLYGYNYWGQGTQVTVSS”: “high polyreactivity”; “QVQLVESGGGLVQAGGSLRLSCAASGSIFRTYAMGWYRQAPGKEREWVAAISSTGGRTYYADSVKGRFTISRDNAKNTVYLQMNSLKPEDTAVYYCAKRYRYITYRYDYWGQGTQVTVSS”: “high polyreactivity”. Next, “QVQLVESGAGLVMAGGSLRLSCAASGRTISIYAMGWYRQAPGKERQLVAAISQSSSITYYADSVKGRFTLSRDNANNTVYLQMISLKPEDTACYYCNAVVLRYQGSWLEYWGQGTQVTVSS”: “low polyreactivity”; “QVQLVESGGGLVQAGGSLRLTCAASGRISRYYAMGWYRQAPGKERELVATITFSGGSTYYADSVKGRFTISRDNAKNTVYLQMNSLKPEDTAVYYCAKQRGGAYLVPWYGYWGQGTQVTVSS”: “high polyreactivity”. Take “QVQLVESGGGLVQAGGSLRLICAASGSTYSVYAMVWYRQAPGKERELVATITWNGGRTYYADSVKGRFTISRDNAKNTVYLQMNSLKPEDTAVYYCAADGWTSIGGPDYQHDYWGQGTQVTVSS”: the “polyreactivity (PSR sort gate)” value is recorded as “high polyreactivity”. With “QVQLVESGGGLVQAGGSLRLSCAASGSIFYWYAMGWYRQAPGKERELVAAISSGGSTNYADSVKGRFTISRDNAKNTVYLQMNSLKPEDTSVYYCNADIRSFYCEYYTGLDSWGQGTQVTVSS”, the “polyreactivity (PSR sort gate)” value was “low polyreactivity”. Then “QVQLVESGGGLFQAGGSLRLSCAASGTFVTYMGWYRQEPGQERELVAAIRNGGSTNYADSVKGRFTISRDNAKNTVYLQMNSLKPEDTAVYYCAARVTYSRGYRGGSRTKYDYWGQGTQVTVSS”, with “low polyreactivity”; and “QVQLVESGGGLVQAGGSLRLSCAACGSTFRYNTMGWYRQATGTEREVVAAISSAATTNYADSVKGRFTISRDNAKNTVYLQLNSLNPEDTALYYCARGYSWSVGYPRVQDMDYWGQGTQVTVSS”, with “high polyreactivity”. Then “QVHLVESGGGLVQAGGSLRLSCAASGSILPFNAMGWYRQAPGKDRELVAAIDGSGGDTYYADSVKGRFTISRDNAKNTVYLHMNSLKPEDTAVYYCAAEYYYTSQLAKYHYGYEYWGQGTQVTVSS”, with “high polyreactivity”.
